# Patent US20240417458A1 (DISC MEDICINE, published 2024)
# Substitutions are numbered along the chain they refer to. Names may count otherwise. “And” between values parts separate entries of the source, which are not always exact repeats. Equal entries are not always repeated.
# T1: soluble human RGMa (human, UniProt Q96B86 48-422, limits assumed)
# T1 construct: Soluble antigen in BIAcore; also called huRGMa; repulsive guidance molecule A
# T1 sequence (looked up): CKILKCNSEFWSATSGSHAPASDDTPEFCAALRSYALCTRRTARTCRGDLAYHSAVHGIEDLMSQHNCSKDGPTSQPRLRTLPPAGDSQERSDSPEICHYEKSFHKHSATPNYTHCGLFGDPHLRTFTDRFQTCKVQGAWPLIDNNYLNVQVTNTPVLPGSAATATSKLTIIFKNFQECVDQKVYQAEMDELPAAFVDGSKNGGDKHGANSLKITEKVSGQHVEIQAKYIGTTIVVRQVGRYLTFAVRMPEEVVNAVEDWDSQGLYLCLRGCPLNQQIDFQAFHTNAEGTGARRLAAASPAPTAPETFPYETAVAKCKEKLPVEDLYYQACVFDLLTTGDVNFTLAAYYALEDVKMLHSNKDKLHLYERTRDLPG
# T2: soluble rat RGMa (rat, UniProt D4A188 48-421)
# T2 construct: Soluble antigen in BIAcore
# T2 sequence: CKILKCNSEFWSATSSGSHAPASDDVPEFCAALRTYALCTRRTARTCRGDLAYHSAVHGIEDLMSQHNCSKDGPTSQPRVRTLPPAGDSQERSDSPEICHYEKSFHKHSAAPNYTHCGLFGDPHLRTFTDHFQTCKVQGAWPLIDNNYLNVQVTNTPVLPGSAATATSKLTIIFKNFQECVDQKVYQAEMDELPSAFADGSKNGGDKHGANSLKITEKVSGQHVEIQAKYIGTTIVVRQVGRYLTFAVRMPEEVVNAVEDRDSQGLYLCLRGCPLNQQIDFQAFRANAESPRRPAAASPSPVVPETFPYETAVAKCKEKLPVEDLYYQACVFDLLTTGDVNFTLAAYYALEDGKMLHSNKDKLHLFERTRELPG
# T3: soluble human RGMc (human, UniProt Q6ZVN8 36-400)
# T3 construct: also called huRGMc; soluble hRGMc
# T3 sequence: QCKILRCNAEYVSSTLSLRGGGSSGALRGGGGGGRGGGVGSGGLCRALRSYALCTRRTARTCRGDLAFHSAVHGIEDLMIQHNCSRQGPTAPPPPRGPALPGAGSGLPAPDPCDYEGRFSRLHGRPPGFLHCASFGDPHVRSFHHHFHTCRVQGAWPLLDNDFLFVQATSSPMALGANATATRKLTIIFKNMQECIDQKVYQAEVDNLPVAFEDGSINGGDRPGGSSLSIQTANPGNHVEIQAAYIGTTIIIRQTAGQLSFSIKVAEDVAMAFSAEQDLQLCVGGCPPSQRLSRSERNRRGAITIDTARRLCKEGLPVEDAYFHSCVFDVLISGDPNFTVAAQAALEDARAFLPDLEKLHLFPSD
# T4: membrane-bound human RGMc (human, UniProt Q6ZVN8 36-400)
# T4 sequence: T3 sequence
# T5: membrane-bound human RGMa (human, UniProt Q96B86 169-424)
# T5 sequence (looked up): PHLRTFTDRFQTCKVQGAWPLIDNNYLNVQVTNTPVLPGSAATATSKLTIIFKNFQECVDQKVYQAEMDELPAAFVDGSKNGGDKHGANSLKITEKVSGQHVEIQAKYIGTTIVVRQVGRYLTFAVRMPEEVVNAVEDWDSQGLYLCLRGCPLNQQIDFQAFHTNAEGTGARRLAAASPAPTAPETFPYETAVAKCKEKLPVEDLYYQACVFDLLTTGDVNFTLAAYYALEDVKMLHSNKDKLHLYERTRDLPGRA
# B1: hHA-001 (antibody, human IgG1, kappa, L234A L235A, V domains shown)
# VH: EVQLVESGGGLVQPGGSLRLSCAASGFTFSNYGMNWIRQAPGKGLEWIGMIYYDSSEKHYADSVKGRFTISRDNSKNTLYLQMNSLRAEDTAVYYCAKGTTPDYWGQGTMVTVSS
# VL: DVVLTQSPLSLPVTLGQPASISCRSSQSLETSDGDTFLEWFQQRPGQSPRLLIYEVSTRFSGVPDRFSGSGSGTDFTLKISRVEAEDVGVYYCFQVTHDPMTFGQGTKLEIKR
# notes: hIgG1 constant region with L234A, L235A, kappa
# B2: hHA-003 (antibody, human IgG1, kappa, L234A L235A, V domains shown)
# VH: B1 VH
# VL: B1 VL with T58N, M101V
# notes: hIgG1 L234A, L235A, kappa
# B3: hHA-002 (antibody, human IgG1, kappa, L234A L235A, V domains shown)
# VH: B1 VH
# VL: B1 VL with T58S, F94M, M101L
# notes: hIgG1 L234A, L235A, kappa
# B4: hHA-011 (antibody, human IgG1, kappa, L234A L235A, V domains shown)
# VH: B1 VH with I37V, T100S
# VL: B1 VL with T31D, D35G, E55D, T58S, V96A, M101L, T102S
# notes: hIgG1 L234A, L235A, kappa
# B5: hHA-007 (antibody, human IgG1, kappa, L234A L235A, V domains shown)
# VH: B1 VH with E57D, Y104V
# VL: B1 VL with T31E, D35Y, E39H, T58N, V96A, M101V
# notes: hIgG1 L234A, L235A, kappa
# B6: hHA-009 (antibody, human IgG1, kappa, L234A L235A, V domains shown)
# VH: B1 VH with I37V
# VL: B1 VL with E30A, T31D, E39H, E55A, T58H, V96A, M101V
# notes: hIgG1 L234A, L235A, kappa
# B7: hHA-005 (antibody, human IgG1, kappa, L234A L235A, V domains shown)
# VH: B1 VH
# VL: B1 VL with T31E, D35Y, E55D, T58E, V96A, H98Y, M101L
# notes: hIgG1 L234A, L235A, kappa
# B8: hHA-004 (antibody, human IgG1, kappa, L234A L235A, V domains shown)
# VH: B1 VH
# VL: B1 VL with T31S, E55D, M101V
# notes: hIgG1 L234A, L235A, kappa
# B9: hHA-006 (antibody, human IgG1, kappa, L234A L235A, V domains shown)
# VH: B1 VH with N31Y
# VL: B1 VL with T31D, D35G, E55D, T58S, V96A, M101L
# notes: hIgG1 L234A, L235A, kappa
# B10: hHA-010 (antibody, human IgG1, kappa, L234A L235A, V domains shown)
# VH: B1 VH with I37V, Y104K
# VL: B1 VL with T31E, D35Y, T58H, V96A, M101L
# notes: hIgG1 L234A, L235A, kappa
# B11: hHA-008-QL (antibody, human IgG1, kappa, L234A L235A)
# heavy: EVQLVESGGGLVQPGGSLRLSCAASGFTFSNYGMNWVRQAPGKGLEWIGMIYYDSSEKHYADSVKGRFTISRDNSKNTLYLQMNSLRAEDTAVYYCAKGTTPDYWGQGTMVTVSSASTKGPSVFPLAPSSKSTSGGTAALGCLVKDYFPEPVTVSWNSGALTSGVHTFPAVLQSSGLYSLSSVVTVPSSSLGTQTYICNVNHKPSNTKVDKKVEPKSCDKTHTCPPCPAPEAAGGPSVFLFPPKPKDQLMISRTPEVTCVVVDVSHEDPEVKFNWYVDGVEVHNAKTKPREEQYNSTYRVVSVLTVLHQDWLNGKEYKCKVSNKALPAPIEKTISKAKGQPREPQVYTLPPSREEMTKNQVSLTCLVKGFYPSDIAVEWESNGQPENNYKTTPPVLDSDGSFFLYSKLTVDKSRWQQGNVFSCSVLHEALHNHYTQKSLSLSPGK
# light: DVVLTQSPLSLPVTLGQPASISCRSSQSLEESDGYTFLHWFQQRPGQSPRLLIYEVSTRFSGVPDRFSGSGSGTDFTLKISRVEAEDVGVYYCFQATHDPLTFGQGTKLEIKRTVAAPSVFIFPPSDEQLKSGTASVVCLLNNFYPREAKVQWKVDNALQSGNSQESVTEQDSKDSTYSLSSTLTLSKADYEKHKVYACEVTHQGLSSPVTKSFNRGEC
# notes: hHA-008 with T250Q and M428L (QL) in the Fc besides L234A, L235A; kappa; also called hHA-008-QL (hIgG1mut(LALA)/QL/k)
# Target: T1, soluble human RGMa
# Test: SPR (BIAcore)
# Procedure: (§1) Binding affinities of the anti-HJV antibodies to soluble human RGMa, Rat RGMa and human RGMc were measured by BIAcore analysis.
Kd,koff,kon,Binder
0.038 nM,6.7e-05 s⁻¹,1.8e+06 M⁻¹ s⁻¹,B1
0.12 nM,0.00014 s⁻¹,1.1e+06 M⁻¹ s⁻¹,B2
0.037 nM,5e-05 s⁻¹,1.4e+06 M⁻¹ s⁻¹,B3
0.11 nM,9.9e-05 s⁻¹,930000 M⁻¹ s⁻¹,B4
0.15 nM,8.9e-05 s⁻¹,590000 M⁻¹ s⁻¹,B5
0.47 nM,0.0004 s⁻¹,860000 M⁻¹ s⁻¹,B6
0.13 nM,0.00025 s⁻¹,1.9e+06 M⁻¹ s⁻¹,B7
0.015 nM,2.2e-05 s⁻¹,1.4e+06 M⁻¹ s⁻¹,B8
0.12 nM,0.00014 s⁻¹,1.2e+06 M⁻¹ s⁻¹,B9
0.12 nM,0.0001 s⁻¹,850000 M⁻¹ s⁻¹,B10

# Target: T2, soluble rat RGMa
# Test: SPR (BIAcore)
# Procedure: as §1
Kd,koff,kon,Binder
0.031 nM,3.6e-05 s⁻¹,1.2e+06 M⁻¹ s⁻¹,B1
0.036 nM,3.1e-05 s⁻¹,870000 M⁻¹ s⁻¹,B2
0.053 nM,5.5e-05 s⁻¹,1e+06 M⁻¹ s⁻¹,B3
0.074 nM,5.2e-05 s⁻¹,700000 M⁻¹ s⁻¹,B4
< 0.002 nM,< 1e-06 s⁻¹,510000 M⁻¹ s⁻¹,B5
0.31 nM,0.00021 s⁻¹,680000 M⁻¹ s⁻¹,B6
0.15 nM,0.00021 s⁻¹,1.4e+06 M⁻¹ s⁻¹,B7
< 0.00094 nM,< 1e-06 s⁻¹,1.1e+06 M⁻¹ s⁻¹,B8
0.032 nM,3e-05 s⁻¹,940000 M⁻¹ s⁻¹,B9
0.039 nM,2.6e-05 s⁻¹,660000 M⁻¹ s⁻¹,B10

# Target: T3, soluble human RGMc
# Test: SPR (BIAcore)
# Procedure: as §1
Kd,koff,kon,Binder
0.16 nM,0.00165 s⁻¹,1.08e+07 M⁻¹ s⁻¹,B1
0.3 nM,0.0024 s⁻¹,8.1e+06 M⁻¹ s⁻¹,B2
0.225 nM,0.0017 s⁻¹,7.65e+06 M⁻¹ s⁻¹,B3
0.285 nM,0.0014 s⁻¹,5.05e+06 M⁻¹ s⁻¹,B4
0.425 nM,0.00215 s⁻¹,5.05e+06 M⁻¹ s⁻¹,B5
0.71 nM,0.0107 s⁻¹,1.55e+07 M⁻¹ s⁻¹,B6
0.32 nM,0.0136 s⁻¹,4.15e+07 M⁻¹ s⁻¹,B7
0.13 nM,0.00104 s⁻¹,7.85e+06 M⁻¹ s⁻¹,B8
0.385 nM,0.00255 s⁻¹,6.65e+06 M⁻¹ s⁻¹,B9
0.445 nM,0.0044 s⁻¹,9.9e+06 M⁻¹ s⁻¹,B10

# Target: T4, membrane-bound human RGMc
# Test: cell-based or functional assay
row,"IC50 (nM), BMP reporter assay for RGMc (BRE-Luc, HEK293)",Binder
1,0.0554 nM,B4
2,1.36 nM,B6
3,0.312 nM,B8

# Target: T5, membrane-bound human RGMa
# Test: cell-based or functional assay
row,"IC50 (nM), BMP reporter assay for RGMa",Binder
1,1.66 nM,B4
2,2.01 nM,B8

# Target: T4, membrane-bound human RGMc
# Test: cell-based or functional assay
# Remark: another data set of the same source
row,"Potency on membrane hRGMc (RGMc/BMP reporter assay), IC50",Binder
1,0.52 nM,B4
2,1.36 nM,B6
3,0.31 nM,B8

# Target: T5, membrane-bound human RGMa
# Test: cell-based or functional assay
# Remark: another data set of the same source
row,"Potency on membrane hRGMa (RGMa/BMP reporter assay), IC50",Binder
1,1.7 nM,B4
2,2 nM,B8

# Target: T6, FcRn
# T6 construct: also called neonatal Fc receptor
# Test: SPR (BIAcore) at pH 6.0
row,Kd,Binder
1,900 nM and 882 nM,B11

# Target: T4, membrane-bound human RGMc
# Test: cell-based or functional assay
# Remark: another data set of the same source
row,IC50 (read off the curve),Binder
1,~0.5 nM,B4
2,~2 nM,B6
3,~0.3 nM,B8

# Target: T5, membrane-bound human RGMa
# Test: cell-based or functional assay
# Remark: another data set of the same source
row,IC50 (read off the curve),Binder
1,~2 nM,B4
2,~2 nM,B8

# Target: T1, soluble human RGMa
# Test: SPR; method not named in Example 2
Kd,koff,kon,Binder
0.077 nM,3.3e-05 s⁻¹,430000 M⁻¹ s⁻¹,B11

# Target: T3, soluble human RGMc
# Test: SPR; method not named in Example 2
Kd,koff,kon,Binder
0.12 nM,0.00033 s⁻¹,2.7e+06 M⁻¹ s⁻¹,B11

# Target: T3, soluble human RGMc
# Test: SPR (BIAcore), soluble hRGMc; summary table
Kd,koff,kon,Binder
0.285 nM,0.0014 s⁻¹,5.05e+06 M⁻¹ s⁻¹,B4
0.71 nM,0.0107 s⁻¹,1.55e+07 M⁻¹ s⁻¹,B6
0.13 nM,0.00104 s⁻¹,7.85e+06 M⁻¹ s⁻¹,B8
